In publication doi:10.1101/420174:

Biological target: afTMEM16 scramblase from Aspergillus fumigatus (Aspergillus fumigatus)
Assay: cryo-EM structure

afTMEM16 scramblase from Aspergillus fumigatus (natural protein)
stoichiometry N: 2
